# Results: publication PMC10469627, “Molecular basis of the glycosomal targeting of PEX11 and its mislocalization to mitochondrion in trypanosomes” (Frontiers in Cell and Developmental Biology, 2023)
# B1: TbPEX11 array peptides of BS1 (aa 13-35) (peptide)
# peptide: QTDGRDKILKAFSGVFKALGSLD
# notes: PEX11 of Trypanosoma brucei, residues 13-35 (BS1); on the array this stretch stood as consecutive overlapping 15-mers (2 aa shift), each on its own spot; source: synthetic peptides, synthesized on a cellulose membrane
# B2: TbPEX11 array peptides of BS2 (aa 77-99) (peptide)
# peptide: CRAKGKVNMKEVLKFLRVLCNFL
# notes: PEX11 of Trypanosoma brucei, residues 77-99 (BS2); on the array this stretch stood as consecutive overlapping 15-mers (2 aa shift), each on its own spot; source: synthetic peptides, synthesized on a cellulose membrane
# B3: TbPEX11 array peptides of BS3 (aa 139-159) (peptide)
# peptide: VLDVVALYGALQKRASDPATS
# notes: PEX11 of Trypanosoma brucei, residues 139-159 (BS3); on the array this stretch stood as consecutive overlapping 15-mers (2 aa shift), each on its own spot; source: synthetic peptides, synthesized on a cellulose membrane
# Biological target: T1, GST-HsPEX19 (human, UniProt P40855 1-299)
# T1 construct: human PEX19, expressed from pGEX4T1-HsPEX19; also called GST-tagged recombinant human PEX19; recombinant human GST-PEX19; source: E. coli BL21 (DE3), purified (Glutathione Agarose 4B)
# T1 sequence (looked up): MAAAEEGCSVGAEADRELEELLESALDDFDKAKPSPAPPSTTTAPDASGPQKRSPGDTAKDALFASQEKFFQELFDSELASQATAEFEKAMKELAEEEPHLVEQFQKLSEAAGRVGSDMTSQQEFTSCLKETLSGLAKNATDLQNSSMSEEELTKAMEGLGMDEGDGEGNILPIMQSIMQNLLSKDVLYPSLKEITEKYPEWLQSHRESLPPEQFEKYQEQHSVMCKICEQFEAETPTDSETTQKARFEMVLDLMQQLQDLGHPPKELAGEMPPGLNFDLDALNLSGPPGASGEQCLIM
# Assay: peptide or protein array; 15-mer peptides (2 aa shift) on a cellulose membrane; probed with 1 µM GST fusion or GST in TBS + 3% BSA + 0.05% Tween-20, 1 h at 4°C; detected with anti-GST antibody and chemiluminescence; at least three consecutive spots counted as a potential site
# Details: both partners purified
row,Binder,binding result
1,B1,binds
2,B2,binds
3,B3,binds
